Positions count from the first letter of the chain named. Numbers in names are those of the source. Blank lines part the entries; values can stand above or below the binder they belong to.
Biological target: plasma purified human complement protein C3 (human) (UniProt P01024)
Assay: cell-based or functional assay

Chain of plasma purified human complement protein C3 (human) (P01024 23-667, chain 1 of 2): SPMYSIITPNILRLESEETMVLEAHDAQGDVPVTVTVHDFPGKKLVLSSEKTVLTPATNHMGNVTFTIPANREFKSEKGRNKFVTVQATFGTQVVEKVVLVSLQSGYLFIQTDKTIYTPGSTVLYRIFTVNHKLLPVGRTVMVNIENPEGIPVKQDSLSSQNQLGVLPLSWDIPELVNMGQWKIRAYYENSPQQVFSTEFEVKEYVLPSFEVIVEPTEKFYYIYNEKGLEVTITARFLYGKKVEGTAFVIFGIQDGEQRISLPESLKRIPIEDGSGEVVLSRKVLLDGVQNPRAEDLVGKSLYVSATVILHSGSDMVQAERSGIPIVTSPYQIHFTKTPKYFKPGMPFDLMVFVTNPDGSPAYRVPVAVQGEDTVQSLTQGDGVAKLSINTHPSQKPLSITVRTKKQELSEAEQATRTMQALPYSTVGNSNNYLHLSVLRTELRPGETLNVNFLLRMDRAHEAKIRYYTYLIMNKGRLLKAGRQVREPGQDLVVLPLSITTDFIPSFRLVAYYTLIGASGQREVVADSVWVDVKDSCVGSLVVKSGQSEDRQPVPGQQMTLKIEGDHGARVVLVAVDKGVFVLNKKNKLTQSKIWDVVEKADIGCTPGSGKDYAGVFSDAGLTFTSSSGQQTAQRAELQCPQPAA
Chain of plasma purified human complement protein C3 (human) (P01024 672-1663, chain 2 of 2): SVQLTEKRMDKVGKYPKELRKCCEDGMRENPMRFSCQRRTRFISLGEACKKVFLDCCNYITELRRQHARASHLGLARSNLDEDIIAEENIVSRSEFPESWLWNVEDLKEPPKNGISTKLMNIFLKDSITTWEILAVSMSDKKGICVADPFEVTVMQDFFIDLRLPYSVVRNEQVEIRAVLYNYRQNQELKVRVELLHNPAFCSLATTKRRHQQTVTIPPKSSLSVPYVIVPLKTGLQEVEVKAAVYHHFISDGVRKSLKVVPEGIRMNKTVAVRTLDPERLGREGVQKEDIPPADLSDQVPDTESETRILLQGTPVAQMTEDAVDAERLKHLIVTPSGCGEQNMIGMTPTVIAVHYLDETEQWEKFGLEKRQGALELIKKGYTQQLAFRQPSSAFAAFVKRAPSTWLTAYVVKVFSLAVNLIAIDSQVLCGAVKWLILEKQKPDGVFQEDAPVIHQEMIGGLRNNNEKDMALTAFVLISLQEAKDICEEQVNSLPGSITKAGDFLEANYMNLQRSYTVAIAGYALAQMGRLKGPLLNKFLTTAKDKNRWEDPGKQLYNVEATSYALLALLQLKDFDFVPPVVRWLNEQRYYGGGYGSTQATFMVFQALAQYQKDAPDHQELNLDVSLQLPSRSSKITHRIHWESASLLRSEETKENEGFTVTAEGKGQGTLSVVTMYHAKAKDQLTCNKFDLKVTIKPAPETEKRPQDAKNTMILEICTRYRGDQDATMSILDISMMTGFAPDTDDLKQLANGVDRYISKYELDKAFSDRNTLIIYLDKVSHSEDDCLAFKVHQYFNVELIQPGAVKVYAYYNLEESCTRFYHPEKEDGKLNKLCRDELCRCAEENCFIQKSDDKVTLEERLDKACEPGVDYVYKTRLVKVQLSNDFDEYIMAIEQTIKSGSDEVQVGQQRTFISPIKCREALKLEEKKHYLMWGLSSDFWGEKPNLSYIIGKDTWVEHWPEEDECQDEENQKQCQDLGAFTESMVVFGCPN

- EC50 of hC3 cleavage: 143 nM
B1: MTSP-1 I41R/Y59F/G60dS/R84H/ins97aE/F97T/T98G/F99L/C122S/Q175L/Q192E/V212I (enzyme)
chain: VVGGTDADEGEWPWQVSLHALGQGHRCGASLISPNWLVSAAHCFIDDRSFRYSDPTQWTAFLGLHDQSQRSAPGVQERHLKRIISHPFFNDTEGLDYDIALLELEKPAEYSSMVRPISLPDASHVFPAGKAIWVTGWGHTQYGGTGALILQKGEIRVINQTTCENLLPQLITPRMMCVGFLSGGVDSCEGDSGGPLSSVEADGRIFQAGIVSWGDGCAQRNKPGVYTRLPLFRDWIKENTGV

- EC50 of hC3 cleavage: 35.2 nM
B2: MTSP-1 Q38R/I41S/D60bH/F60eV/F97T/ins97aE/T98G/F99L/C122S/Q175L/Q192E (enzyme)
chain: B1 chain with Q23R, R26S, F44Y, D47H, S49G, F50V, H79R, I210V

- EC50 of hC3 cleavage: 187 nM
B3: MTSP-1 I41R/ins97aV/F97D/T98P/F99L/C122S/G151N/Q175L/Q192E (enzyme)
chain: B1 chain with F44Y, S49G, H79R, T92D, E93V, G94P, G146N, I210V

- EC50 of hC3 cleavage: 232 nM
B4: MTSP-1 I41R/ins97aV/F97D/T98P/F99L/C122S/G151N/Q192G (enzyme)
chain: B1 chain with F44Y, S49G, H79R, T92D, E93V, G94P, G146N, L170Q, E189G, I210V

- EC50 of hC3 cleavage: 22.5 nM
B5: MTSP-1 Q38R/I41S/D60bH/F60eV/ins97aE/F97T/T98G/F99L/C122S/G151N/Q175L/Q192E (enzyme)
chain: B1 chain with Q23R, R26S, F44Y, D47H, S49G, F50V, H79R, G146N, I210V

- EC50 of hC3 cleavage: 103 nM
B6: MTSP-1 I41D/ins97aE/F97T/T98G/F99L/C122S/G151N/Q175L/Q192E/Q209L (enzyme)
chain: B1 chain with R26D, F44Y, S49G, H79R, G146N, Q207L, I210V

- EC50 of hC3 cleavage: 148 nM
B7: MTSP-1 I41D/ins97aE/F97T/T98G/F99L/C122S/G151N/Q175L/Q192E (enzyme)
chain: B1 chain with R26D, F44Y, S49G, H79R, G146N, I210V

- EC50 of hC3 cleavage: 157 nM
B8: MTSP-1 I41D/ins97aE/F97T/T98G/F99L/C122S/Q175L/Q192E (enzyme)
chain: B1 chain with R26D, F44Y, S49G, H79R, I210V

- EC50 of hC3 cleavage: 253 nM
B9: MTSP-1 I41R/Y59F/ins97aE/F97T/T98G/F99L/C122S/L153Q/Q175L/Q192E (enzyme)
chain: B1 chain with S49G, H79R, L148Q, I210V

- EC50 of hC3 cleavage: 158 nM
B10: MTSP-1 ins97aV/F97D/T98P/F99L/C122S/Q175L/Q192E (enzyme)
chain: B1 chain with R26I, F44Y, S49G, H79R, T92D, E93V, G94P, I210V

- EC50 of hC3 cleavage: 87 nM
B11: MTSP-1 F97D/ins97aV/T98P/F99L/C122S/G151N/Q192G (enzyme)
chain: VVGGTDADEGEWPWQVSLHALGQGHICGASLISPNWLVSAAHCYIDDRGFRYSDPTQWTAFLGLHDQSQRSAPGVQERRLKRIISHPFFNDDVPLDYDIALLELEKPAEYSSMVRPISLPDASHVFPAGKAIWVTGWGHTQYGGTNALILQKGEIRVINQTTCENLLPQQITPRMMCVGFLSGGVDSCGGDSGGPLSSVEADGRIFQAGVVSWGDGCAQRNKPGVYTRLPLFRDWIKENTGV

- EC50 of hC3 cleavage: 65.8 nM
B12: MTSP-1 H40R/I41H/F97D/ins97aV/T98P/F99L/C122S/Q175R/Q192G/D217E/K224R (enzyme)
chain: B11 chain with H25R, I26H, N146G, Q170R, D215E, K222R

- EC50 of hC3 cleavage: 97.3 nM
B13: MTSP-1 I41R/F97W/F99L/C122S/G151N/Q192G (enzyme)
chain: VVGGTDADEGEWPWQVSLHALGQGHRCGASLISPNWLVSAAHCYIDDRGFRYSDPTQWTAFLGLHDQSQRSAPGVQERRLKRIISHPFFNDWTLDYDIALLELEKPAEYSSMVRPISLPDASHVFPAGKAIWVTGWGHTQYGGTNALILQKGEIRVINQTTCENLLPQQITPRMMCVGFLSGGVDSCGGDSGGPLSSVEADGRIFQAGVVSWGDGCAQRNKPGVYTRLPLFRDWIKENTGV

- EC50 of hC3 cleavage: 9.42 nM
B14: MTSP-1 Q38E/H40R/I41H/D60bN/F60eT/F97D/F99L/C122S/Q175L/Q192G (enzyme)
chain: B13 chain with Q23E, H25R, R26H, D47N, F50T, W92D, N145G, Q169L

- EC50 of hC3 cleavage: 0.867 nM
B15: MTSP-1 Q38G/H40R/I41H/D60bN/F97D/F99L/C122S/Q175L/Q192G (enzyme)
chain: B13 chain with Q23G, H25R, R26H, D47N, W92D, N145G, Q169L

- EC50 of hC3 cleavage: 15.3 nM
B16: MTSP-1 Q38E/H40R/I41H/D60bK/F97D/F99L/C122S/Q175L/Q192G (enzyme)
chain: B13 chain with Q23E, H25R, R26H, D47K, W92D, N145G, Q169L

- EC50 of hC3 cleavage: 20.6 nM
B17: MTSP-1 Q38G/H40R/I41H/D60bK/F97D/F99L/C122S/Q175L/Q192G (enzyme)
chain: B13 chain with Q23G, H25R, R26H, D47K, W92D, N145G, Q169L

- EC50 of hC3 cleavage: 30.9 nM
B18: MTSP-1 Q38E/H40R/I41H/F97D/F99L/C122S/Q192G (enzyme)
chain: B13 chain with Q23E, H25R, R26H, W92D, N145G

- EC50 of hC3 cleavage: 28.1 nM
B19: MTSP-1 Q38E/H40R/I41H/D60bE/F97D/F99L/C122S/Q192G (enzyme)
chain: B13 chain with Q23E, H25R, R26H, D47E, W92D, N145G

- EC50 of hC3 cleavage: 39.5 nM
B20: MTSP-1 Q38E/H40R/I41H/D60bN/F97D/F99L/C122S/Q192G (enzyme)
chain: B13 chain with Q23E, H25R, R26H, D47N, W92D, N145G

- EC50 of hC3 cleavage: 21.9 nM
B21: MTSP-1 H40R/I41H/F97D/F99L/Q175R/Q192G/D217E/K224R (enzyme)
chain: B13 chain with H25R, R26H, W92D, S117C, N145G, Q169R, D214E, K221R

From patent US20240018502A1
